We go through 12 molecules from patent US20220362394A1 (SUTRO BIOPHARMA, published 2022).

The target in assay [1] is cynomolgus BCMA on cells (cynomolgus monkey, UniProt Q02223 1-184 (human entry)). The assay is described as follows: FACS, 293T-cynoBCMA cells. As for the experimental part: (§1) Variants for which sufficient protein was purified in secondary screening were tested in a fluorescence-activated cell sorting (FACS) cell-binding assay. […] 6-12 point dilutions of anti-BCMA variants starting from concentrations of about 100-200 nM antibody were dispensed into each well using a BioMekFX (Beckman Coulter). Cells were then incubated on ice for 1 hr, washed with FACS buffer and incubated for 1 hr on ice with […] FACS buffer containing 2.5 μg/ml Alexa647-conjugated Goat Anti-Human IgG dispensed using BioMekFX (Beckman Coulter). Cells were then washed 2× with FACS buffer and fixed for 10 minutes in […] PBS with 2% paraformaldehyde (PFA) prior to fluorescence detection. Samples were acquired using a Beckton Dickinson LSRII FACS. Geometric Mean Fluorescence Intensity of BCMA antibody binding was analyzed using FlowJo® software (Tree Star, Inc.).
On the technique in general: Flow cytometry measures light scatter and fluorescence of single cells or particles in a stream.

The target of assay [2] is T1, human BCMA-Fc (human, UniProt Q02223 1-54).
T1 construct: Bought from R&D Systems; also called huBCMA-Fc; not shown: Fc part not described
T1 sequence: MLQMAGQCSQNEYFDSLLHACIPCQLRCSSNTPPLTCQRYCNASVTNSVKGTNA
The assay is described as follows: SPR Biacore, antibody captured, 25 C. As for the experimental part: (§2) Anti-Fab or anti-Fc polyclonal antibodies were immobilized onto a CM5 chip (GE Life Sciences) using amine coupling chemistry (from Amine Coupling Kit, GE Life Sciences). The immobilization steps were carried out at a flow rate of 25 μL/min in 1×HBS-EP+ buffer (GE Life Sciences; 10× Stock diluted before use). The sensor surfaces were activated for 7 min with a mixture of NHS (0.05 M) and EDC (0.2 M). The anti-Fab or anti-Fc antibodies were injected over all 4 flow cells at a concentration of 25 μg/ml in 10 mM sodium acetate, pH 4.5, for 7 min. Ethanolamine (1 M, pH 8.5) was injected for 7 min to block any remaining activated groups.
(§3) Off-rate and kinetic binding experiments were performed at 25° C. using 1×HBS-EP+ buffer. […] After capturing ligand (antibody) on the anti-Fab or anti-Fc surface, the analyte (human BCMA-Fc, cyno BCMA-Fc, or human BCMA from R&D Systems, custom protein production, or Sigma Aldrich, respectively) was bound for 180 seconds, followed by a 600 second dissociation phase at a flow rate of 50 μL/min. Between each ligand capture and analyte binding cycle, regeneration was carried out using 2 injections of 10 mM glycine pH 2.0 for 30 seconds at 30 μL/min, followed by a 30 second buffer wash step.
(§4) The data was fit with the Biacore T200 Evaluation software, using a 1-1 Langmuir binding model. KD (affinity, nM) was determined as a ratio of the kinetic rate constants calculated from the fits of the association and dissociation phases.
(SPR reads the build-up and loss of mass on a sensor chip optically.)

The target of assay [3] is T2, human BCMA on cells (human, UniProt Q02223 1-184).
T2 construct: also called hBCMA; BCMA on NCI-H929, ARP-1, OPM-2, U266B1, MM.1S, RPMI-8226 cells
T2 sequence: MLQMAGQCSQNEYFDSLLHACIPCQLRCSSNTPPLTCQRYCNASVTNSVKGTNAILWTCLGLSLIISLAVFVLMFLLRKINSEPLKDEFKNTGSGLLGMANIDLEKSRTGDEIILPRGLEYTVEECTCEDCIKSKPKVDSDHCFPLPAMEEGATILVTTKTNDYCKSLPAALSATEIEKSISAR
The assay is described as follows: FACS, NCI-H929 cells. The protocol: as §1

The target of assay [4] is T3, cyno BCMA-Fc (cynomolgus monkey, UniProt Q02223 1-54 (human entry)).
T3 construct: Custom protein production; also called cynomolgus BCMA-Fc; not shown: Fc part not described
The assay is described as follows: SPR Biacore, antibody captured, 25 C. The protocol: as §2, §3, §4

cynomolgus BCMA on cells, sequence (Q02223 other isoform, or with tags, fused parts or gaps): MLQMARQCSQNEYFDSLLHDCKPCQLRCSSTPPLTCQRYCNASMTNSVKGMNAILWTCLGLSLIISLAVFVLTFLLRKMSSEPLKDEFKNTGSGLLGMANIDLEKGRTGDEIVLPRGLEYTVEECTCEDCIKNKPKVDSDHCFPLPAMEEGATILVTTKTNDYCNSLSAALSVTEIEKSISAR

B1: 2137-C07 (antibody, V domains shown)
VH: EVQLVESGGGLVQPGGSLRLSCAASGFNISGSGIHWVRQAPGKGLEWVGFINPAGGYTDYADSVKGRFTISADTSKNTAYLQMNSLRAEDTAVYYCARDYVYQYWTYVLDYWGQGTLVTVSS
VL: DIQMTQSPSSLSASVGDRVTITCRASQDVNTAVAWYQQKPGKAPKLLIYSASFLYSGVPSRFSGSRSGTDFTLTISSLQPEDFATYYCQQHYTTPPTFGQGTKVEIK
notes: IgG1 with His/FLAG tag, cell-free expressed, trastuzumab LC; also called Antibody 1
In general, Kd refers to the concentration at which binding is half-saturated. A lower Kd goes with a tighter complex. One may read the koff as a measure of how fast the partners let go of each other. A low value points to a long-lived complex. As usually defined, the kon is the rate constant with which the complex forms. Low readings indicate slower complex formation, high ones faster complex formation. On to B1, for which, in assay [1], the Bmax was 18500 MFI and the Kd is 10.1 nM. In assay [2], this molecule had a dissociation constant Kd of 1.63 nM, a koff of 0.000745 s⁻¹ and a kon of 457000 M⁻¹ s⁻¹.

B2: 2265-F02 (antibody, V domains shown)
VH: EVQLVESGGGLVQPGGSLRLSCAASGFNISAPGIHWVRQAPGKGLEWVGFINPAGGYTDYADSVKGRFTISADTSKNTAYLQMNSLRAEDTAVYYCARDYIRQYWTYVLDYWGQGTLVTVSS
VL: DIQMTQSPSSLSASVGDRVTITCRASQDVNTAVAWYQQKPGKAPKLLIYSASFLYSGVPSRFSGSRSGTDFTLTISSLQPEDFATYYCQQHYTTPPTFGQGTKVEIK
notes: also called Antibody 4; Antibody 2265-F02
In assay [3], B2 yielded a Bmax of 11700 MFI and a dissociation constant (Kd) of 5.2 nM. In assay [1], the Bmax was 23800 MFI and the affinity, expressed as Kd, was 6.2 nM. In assay [2], this molecule came in with a Kd of 0.499 nM, a koff of 0.000293 s⁻¹ and a kon of 587000 M⁻¹ s⁻¹. For the same molecule, in assay [4], the Kd was 3.68 nM, the koff was determined as 0.00116 s⁻¹ and the kon was 315000 M⁻¹ s⁻¹.

B3: 2265-A09 (antibody, V domains shown)
VH: EVQLVESGGGLVQPGGSLRLSCAASGFNIIGPGIHWVRQAPGKGLEWVGFINPAGGYTDYADSVKGRFTISADTSKNTAYLQMNSLRAEDTAVYYCARDYVYNYWTYVLDYWGQGTLVTVSS
VL: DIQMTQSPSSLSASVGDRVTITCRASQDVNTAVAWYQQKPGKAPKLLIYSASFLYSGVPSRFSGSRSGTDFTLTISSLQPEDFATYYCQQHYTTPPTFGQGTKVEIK
notes: also called Antibody 6
As to B3, in assay [3], the Bmax worked out at 12700 MFI and binding was put at a Kd of 10.3 nM. Also, in assay [1], the Bmax turned out to be 18500 MFI and the affinity, expressed as Kd, was 3 nM. In assay [2], this molecule had a dissociation constant (Kd) of 0.589 nM, an off-rate (koff) of 0.000318 s⁻¹ and an on-rate constant (kon) of 539000 M⁻¹ s⁻¹. Also, in assay [4], the dissociation constant (Kd) came to 6.43 nM, the off-rate constant (koff) worked out at 0.00173 s⁻¹ and the on-rate (kon) turned out to be 270000 M⁻¹ s⁻¹.

B4: 2265-A06 (antibody, V domains shown)
VH: EVQLVESGGGLVQPGGSLRLSCAASGFNIYRSGIHWVRQAPGKGLEWVGFINPAGGYTDYADSVKGRFTISADTSKNTAYLQMNSLRAEDTAVYYCARDYVPQYWTYVLDYWGQGTLVTVSS
VL: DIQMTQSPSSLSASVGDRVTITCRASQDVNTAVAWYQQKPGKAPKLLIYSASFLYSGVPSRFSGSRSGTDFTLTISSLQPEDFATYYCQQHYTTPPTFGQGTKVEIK
notes: also called Antibody 13
In the case of B4, in assay [3], the Bmax turned out to be 11100 MFI and the Kd was found to be 5.7 nM. Besides, in assay [1], the Bmax turned out to be 22100 MFI and the Kd was found to be 3.8 nM. In assay [2], binding was characterised by a dissociation constant (Kd) of 0.789 nM, the dissociation rate constant (koff) came out at 0.000392 s⁻¹ and the on-rate (kon) stood at 497000 M⁻¹ s⁻¹. In assay [4], this molecule returned a Kd of 6.24 nM, an off-rate (koff) of 0.00156 s⁻¹ and an on-rate constant (kon) of 249000 M⁻¹ s⁻¹.

B5: 2265-B06 (antibody, V domains shown)
VH: EVQLVESGGGLVQPGGSLRLSCAASGFNIRVSGIHWVRQAPGKGLEWVGFINPAGGYTDYADSVKGRFTISADTSKNTAYLQMNSLRAEDTAVYYCARDYVQAYWTYVLDYWGQGTLVTVSS
VL: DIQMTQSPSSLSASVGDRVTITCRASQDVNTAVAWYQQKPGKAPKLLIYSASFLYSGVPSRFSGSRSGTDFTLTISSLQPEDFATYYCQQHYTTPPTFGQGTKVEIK
notes: also called Antibody 5
On to B5, for which the Bmax was determined as 11600 MFI in assay [3] and 26700 MFI in assay [1]. The Kd amounted to 4.5 nM in assay [3], 5.1 nM in assay [1], 0.546 nM in assay [2] and 3.67 nM in assay [4]. The results for the koff in assay [2] and in assay [4] were 0.000385 s⁻¹ and 0.0013 s⁻¹, respectively. The on-rate (kon) in assay [2] was 705000 M⁻¹ s⁻¹; in assay [4], 354000 M⁻¹ s⁻¹.

B6: 2265-D11 (antibody, V domains shown)
VH: EVQLVESGGGLVQPGGSLRLSCAASGFNISGPGIHWVRQAPGKGLEWVGFINPAAGYTDYADSVKGRFTISADTSKNTAYLQMNSLRAEDTAVYYCARDYIYQYWTYVLDYWGQGTLVTVSS
VL: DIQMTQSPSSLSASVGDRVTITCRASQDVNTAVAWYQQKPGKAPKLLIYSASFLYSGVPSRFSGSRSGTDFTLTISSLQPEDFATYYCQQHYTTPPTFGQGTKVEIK
notes: also called Antibody 9
Take B6: in assay [3], the Bmax is 10900 MFI and the dissociation constant Kd was found to be 4 nM. In assay [1], this molecule returned a Bmax of 21300 MFI and an equilibrium dissociation constant (Kd) of 3.8 nM. In assay [2], this molecule had a Kd of 0.701 nM, a koff of 0.000537 s⁻¹ and a kon of 766000 M⁻¹ s⁻¹. In assay [4], this molecule gave a Kd of 3.24 nM, a koff of 0.00116 s⁻¹ and an association rate constant (kon) of 358000 M⁻¹ s⁻¹.

B7: 2265-E02 (antibody, V domains shown)
VH: EVQLVESGGGLVQPGGSLRLSCAASGFNIYVSGIHWVRQAPGKGLEWVGFINPAGGYTDYADSVKGRFTISADTSKNTAYLQTNSLRAEDTAVYYCARDYVYQYWTYVLDYWGQGTLVTVSS
VL: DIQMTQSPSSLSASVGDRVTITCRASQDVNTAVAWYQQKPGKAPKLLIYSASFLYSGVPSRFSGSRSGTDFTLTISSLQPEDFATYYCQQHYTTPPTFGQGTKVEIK
notes: also called Antibody 8
In assay [3], B7 showed a Bmax of 12200 MFI and a Kd of 4.5 nM. Moreover, in assay [1], the Bmax was 21800 MFI and the dissociation constant (Kd) turned out to be 5 nM. For the same molecule, in assay [2], the affinity, expressed as Kd, was 0.67 nM; the off-rate constant (koff) turned out to be 0.000383 s⁻¹; the association rate constant (kon) stood at 571000 M⁻¹ s⁻¹. In assay [4], the Kd was 5.75 nM, the off-rate constant (koff) is 0.00153 s⁻¹ and the on-rate constant (kon) was 266000 M⁻¹ s⁻¹.

B8: 2265-C03 (antibody, V domains shown)
VH: EVQLVESGGGLVQPGGSLRLSCAAPGFNISVPGIHWVRQAPGKGLEWVGFINPAGGYTDYADSVKGRFTISADTSKNTAYLQMNSLRAEDTAVYYCARDYVPQYWTYVLDYWGQGTLVTVSS
VL: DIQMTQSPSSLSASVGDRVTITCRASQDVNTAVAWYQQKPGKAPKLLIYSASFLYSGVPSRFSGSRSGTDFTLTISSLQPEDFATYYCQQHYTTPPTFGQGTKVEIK
notes: also called Antibody 11
In assay [3], B8 came in with a Bmax of 12500 MFI and a dissociation constant (Kd) of 5.3 nM. Besides, in assay [2], the dissociation constant (Kd) came to 0.724 nM, the koff was 0.000425 s⁻¹ and the kon came to 587000 M⁻¹ s⁻¹. In assay [4], this molecule returned a Kd of 5.83 nM, a dissociation rate constant (koff) of 0.00177 s⁻¹ and an on-rate (kon) of 304000 M⁻¹ s⁻¹.

B9: 2265-D05 (antibody, V domains shown)
VH: EVQLVESGGGLVQPGGSLRLSCAASGFNISGPGIHWVRQAPGKGLEWVGFINPAAGYTDYADSVKGRFAISADTSKNTAYLQMNSLRAEDTAVYYCARDFVYAYWTYVLDYWGQGTLVTVSS
VL: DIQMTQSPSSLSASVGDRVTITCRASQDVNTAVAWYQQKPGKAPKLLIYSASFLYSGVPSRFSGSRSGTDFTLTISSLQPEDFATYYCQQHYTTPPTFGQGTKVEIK
notes: also called Antibody 10
Take B9: the results for the Bmax in assay [3] and in assay [1] were 9620 MFI and 21900 MFI, respectively. The Kd in assay [3] turned out to be 4.4 nM; in assay [1], 2.5 nM; in assay [2], 0.702 nM; in assay [4] it was 4.53 nM. The values for the koff in assay [2] and in assay [4] were 0.000485 s⁻¹ and 0.00147 s⁻¹, respectively. In addition, the values for the on-rate constant (kon) in assay [2] and in assay [4] were 691000 M⁻¹ s⁻¹ and 325000 M⁻¹ s⁻¹, respectively.

B10: 2265-C02 (antibody, V domains shown)
VH: EVQLVESGGGLVQPGGSLRLSCAASGFNIGVSGIHWVRQAPGKGLEWVGFINPAGGYTDYAGSVKGRFTISADTSKNTAYLQMNSLRAEDTAVYYCARDYIYSYWTYVLDYWGQGTLVTVSS
VL: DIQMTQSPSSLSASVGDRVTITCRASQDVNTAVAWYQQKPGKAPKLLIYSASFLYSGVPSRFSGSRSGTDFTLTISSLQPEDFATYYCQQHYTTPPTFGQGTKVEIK
notes: also called Antibody 12
In assay [3], B10 yielded a Bmax of 11500 MFI and a dissociation constant Kd of 4.4 nM. In assay [1], this molecule showed a Bmax of 24100 MFI and a Kd of 4.9 nM. Also, in assay [2], the dissociation constant (Kd) came out at 0.758 nM, the koff was determined as 0.000567 s⁻¹ and the kon amounted to 747000 M⁻¹ s⁻¹. In assay [4], this molecule showed a Kd of 4.22 nM, an off-rate constant (koff) of 0.00137 s⁻¹ and a kon of 325000 M⁻¹ s⁻¹.

B11: 9A8 (antibody, V domains shown)
VH: AVTLDESGGGLQTPGGTLSLVCKASGFTFSSFNMFWVRQAPGKGLEWVAYIRNDGNSASYGPAVKGRATISRDNGQSTVRLQLNNLRAEDTATYYCAKTTCIGSGGCIDTWGHGTEVIVSS
VL: ALTQPSSVSANPGETVKITCSGGSSDYGWFQQKSPGSAPVTVIYSNNQRPSGIPSRFSGSKSGSTGTLTITGVQAEDEAIYYCANVDYTDDVFGAGTTLTVL
notes: Chicken HybriFree-derived antibody; also called Antibody 30
Turning to B11, the Bmax in assay [3] was 21100 MFI; in assay [1], 17800 MFI. The Kd in assay [3] is 33 nM; in assay [1], 8.87 nM.

B12: 10G5 (antibody, V domains shown)
VH: AVTLDESGGGLQTPGGVLSLVCKASGFTFSSFNMFWVRQAPGKGLEWVAYISNDGSSTSYGPAVKGRATISRDNGQSTVRLQLNNLRAEDTATYFCAKTTCIGSGGCIDTWGHGTEVIVSS
VL: ALTQPSSVSANPGETVKITCSGGNYDYGWYQQKSPGSAPVTLIYYNNKRPSDIPSRFSGSKSGSTGTLTITGVQAEDEAIYYCANVDSTDDVFGAGTTLTVL
notes: Chicken HybriFree-derived antibody; also called Antibody 31
Consider B12, for which the Bmax in assay [3] was 25800 MFI; in assay [1], 24400 MFI. For the same molecule, the Kd in assay [3] was determined as 65.8 nM; in assay [1] it was 7.33 nM.
